Reference: patent US20260193376A1 (Novo Nordisk, published 2026)

How the values were obtained:
[1] = biological target: FIX T335A with C-terminal His-tag (human, UniProt P00740 47-461); assay: SPR (Biacore T200), FIX variant captured via His-tag, 20 µM OA antibody
Method: (§1) SPR analyses were carried out on Biacore T200 instruments (Biacore AB, Uppsala, Sweden). For the experiments on the T200 instrument the following conditions were applied: measurements were conducted at a temperature of 25° C. Anti-His antibody at 25 μg/ml (R&D Systems, catalogue #MAB050) was immobilized on a CM5 sensor chip using standard amine coupling chemistry. […] at 25 nM were injected at a flow rate of 10 μl/min for 1 min and were captured via their His-tag by the immobilized anti-His antibody. […] The running buffer used was 20 mM Tris, 150 mM NaCl, 5 mM CaCl₂, 0.05% Tween-20, 10 mg/ml BSA, pH 7.4. This was also used for dilution of anti-FIX antibody and FIX samples. Regeneration of the chip was achieved using 10 mM Glycine pH 2.0. Binding data were analysed according to a 1:1 model using BiaEvaluation 4.1 supplied by the manufacturer (Biacore AB, Uppsala, Sweden).
(§2) where Rmax_FIXvar and Rmax_FIXwt represent capture level (RU) of FIX variant and wild-type FIX, respectively, and where R_{max_Ab,FIX_var} and R_{max_Ab,FIX_wt} represent Rmax (RU) of the 20 μM antibody to captured FIX variant and wild-type FIX, respectively.

[2] = biological target: FIX R333A with C-terminal His-tag (human, UniProt P00740 47-461); assay: as above
Method: as §1, §2

[3] = biological target: FIX T343I with C-terminal His-tag (human, UniProt P00740 47-461); assay: as above
Method: as §1, §2

[4] = biological target: FIX T343A with C-terminal His-tag (human, UniProt P00740 47-461); assay: as above
Method: as §1, §2

[5] = biological target: FIX N346Q with C-terminal His-tag (human, UniProt P00740 47-461); assay: as above
Method: as §1, §2

[6] = biological target: FIX K341E with C-terminal His-tag (human, UniProt P00740 47-461); assay: as above
Method: as §1, §2

[7] = biological target: FIX S339L with C-terminal His-tag (human, UniProt P00740 47-461); assay: as above
Method: as §1, §2

[8] = biological target: FIX K301A with C-terminal His-tag (human, UniProt P00740 47-461); assay: as above
Method: as §1, §2

[9] = biological target: FIX D332A with C-terminal His-tag (human, UniProt P00740 47-461); assay: as above
Method: as §1, §2

[10] = biological target: FIX L337A with C-terminal His-tag (human, UniProt P00740 47-461); assay: as above
Method: as §1, §2

[11] = biological target: FIX A334L with C-terminal His-tag (human, UniProt P00740 47-461); assay: as above
Method: as §1, §2

[12] = biological target: FIX D332S with C-terminal His-tag (human, UniProt P00740 47-461); assay: as above
Method: as §1, §2

[13] = biological target: FIX K341A with C-terminal His-tag (human, UniProt P00740 47-461); assay: as above
Method: as §1, §2

[14] = biological target: FIX R338A with C-terminal His-tag (human, UniProt P00740 47-461); assay: as above
Method: as §1, §2

[15] = biological target: FIX N346A with C-terminal His-tag (human, UniProt P00740 47-461); assay: as above
Method: as §1, §2

[16] = biological target: FIX T340A with C-terminal His-tag (human, UniProt P00740 47-461); assay: as above
Method: as §1, §2

[17] = biological target: human plasma-derived Factor IXa (human, UniProt P00740 47-191; P00740 227-461); assay: cell-based or functional assay
[18] = biological target: T1, wild-type FIX with C-terminal His-tag (human, UniProt P00740 47-461); assay: SPR (Biacore T200), wild-type FIX captured via His-tag, 20 µM OA antibody (reference)
T1 construct: also called WT
Method: as §1, §2

Chain of FIX R333A with C-terminal His-tag (P00740 other isoform, or with tags, fused parts or gaps R333A R333A limits assumed): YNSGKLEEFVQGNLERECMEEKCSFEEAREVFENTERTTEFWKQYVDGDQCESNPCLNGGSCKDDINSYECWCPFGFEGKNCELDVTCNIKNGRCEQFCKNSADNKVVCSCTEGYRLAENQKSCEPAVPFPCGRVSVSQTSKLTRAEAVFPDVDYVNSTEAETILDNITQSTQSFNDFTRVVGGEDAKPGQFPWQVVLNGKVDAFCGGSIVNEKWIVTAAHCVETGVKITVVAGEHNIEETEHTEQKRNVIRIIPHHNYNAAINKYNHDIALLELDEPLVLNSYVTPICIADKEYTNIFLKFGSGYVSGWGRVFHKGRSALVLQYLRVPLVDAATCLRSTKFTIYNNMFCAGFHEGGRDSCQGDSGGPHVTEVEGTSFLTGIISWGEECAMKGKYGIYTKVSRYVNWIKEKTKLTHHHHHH
Chain of FIX R338A with C-terminal His-tag (P00740 other isoform, or with tags, fused parts or gaps R338A R338A limits assumed): as the sequence (P00740 other isoform, or with tags, fused parts or gaps R333A R333A limits assumed) above, with A333R, R338A counted along it
Chain of FIX T340A with C-terminal His-tag (P00740 other isoform, or with tags, fused parts or gaps T340A T340A limits assumed): as the sequence (P00740 other isoform, or with tags, fused parts or gaps R333A R333A limits assumed) above, with A333R, T340A counted along it
Chain of FIX T343I with C-terminal His-tag (P00740 other isoform, or with tags, fused parts or gaps T343I T343I limits assumed): as the sequence (P00740 other isoform, or with tags, fused parts or gaps R333A R333A limits assumed) above, with A333R, T343I counted along it
Chain of FIX A334L with C-terminal His-tag (P00740 other isoform, or with tags, fused parts or gaps A334L A334L limits assumed): as the sequence (P00740 other isoform, or with tags, fused parts or gaps R333A R333A limits assumed) above, with A333R, A334L counted along it
Chain of FIX L337A with C-terminal His-tag (P00740 other isoform, or with tags, fused parts or gaps L337A L337A limits assumed): as the sequence (P00740 other isoform, or with tags, fused parts or gaps R333A R333A limits assumed) above, with A333R, L337A counted along it
Chain of FIX T335A with C-terminal His-tag (P00740 other isoform, or with tags, fused parts or gaps T335A T335A limits assumed): as the sequence (P00740 other isoform, or with tags, fused parts or gaps R333A R333A limits assumed) above, with A333R, T335A counted along it
Chain of FIX K301A with C-terminal His-tag (P00740 other isoform, or with tags, fused parts or gaps K301A K301A limits assumed): as the sequence (P00740 other isoform, or with tags, fused parts or gaps R333A R333A limits assumed) above, with K301A, A333R counted along it
Chain of FIX N346Q with C-terminal His-tag (P00740 other isoform, or with tags, fused parts or gaps N346Q N346Q limits assumed): as the sequence (P00740 other isoform, or with tags, fused parts or gaps R333A R333A limits assumed) above, with A333R, N346Q counted along it
Chain of FIX D332A with C-terminal His-tag (P00740 other isoform, or with tags, fused parts or gaps D332A D332A limits assumed): as the sequence (P00740 other isoform, or with tags, fused parts or gaps R333A R333A limits assumed) above, with D332A, A333R counted along it
Chain of FIX K341A with C-terminal His-tag (P00740 other isoform, or with tags, fused parts or gaps K341A K341A limits assumed): as the sequence (P00740 other isoform, or with tags, fused parts or gaps R333A R333A limits assumed) above, with A333R, K341A counted along it
Chain of FIX K341E with C-terminal His-tag (P00740 other isoform, or with tags, fused parts or gaps K341E K341E limits assumed): as the sequence (P00740 other isoform, or with tags, fused parts or gaps R333A R333A limits assumed) above, with A333R, K341E counted along it
Chain of human plasma-derived Factor IXa (P00740 47-191, chain 1 of 2): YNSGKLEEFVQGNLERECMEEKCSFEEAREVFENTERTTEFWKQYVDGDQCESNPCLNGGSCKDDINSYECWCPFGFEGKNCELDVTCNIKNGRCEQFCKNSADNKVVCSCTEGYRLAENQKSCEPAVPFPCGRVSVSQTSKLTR
Chain of human plasma-derived Factor IXa (P00740 227-461, chain 2 of 2): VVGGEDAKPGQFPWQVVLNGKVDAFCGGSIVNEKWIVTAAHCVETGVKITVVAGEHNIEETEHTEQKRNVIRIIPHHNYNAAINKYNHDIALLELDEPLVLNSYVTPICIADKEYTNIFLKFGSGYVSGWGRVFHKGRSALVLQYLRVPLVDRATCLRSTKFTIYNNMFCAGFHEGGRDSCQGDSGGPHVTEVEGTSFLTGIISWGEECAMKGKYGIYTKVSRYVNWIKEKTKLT
Chain of FIX D332S with C-terminal His-tag (P00740 other isoform, or with tags, fused parts or gaps D332S D332S limits assumed): as the sequence (P00740 other isoform, or with tags, fused parts or gaps R333A R333A limits assumed) above, with D332S, A333R counted along it
Chain of FIX S339L with C-terminal His-tag (P00740 other isoform, or with tags, fused parts or gaps S339L S339L limits assumed): as the sequence (P00740 other isoform, or with tags, fused parts or gaps R333A R333A limits assumed) above, with A333R, S339L counted along it
Chain of FIX N346A with C-terminal His-tag (P00740 other isoform, or with tags, fused parts or gaps N346A N346A limits assumed): as the sequence (P00740 other isoform, or with tags, fused parts or gaps R333A R333A limits assumed) above, with A333R, N346A counted along it
T1 sequence (P00740 other isoform, or with tags, fused parts or gaps limits assumed): as the sequence (P00740 other isoform, or with tags, fused parts or gaps R333A R333A limits assumed) above, with A333R counted along it
Chain of FIX T343A with C-terminal His-tag (P00740 other isoform, or with tags, fused parts or gaps T343A T343A limits assumed): as the sequence (P00740 other isoform, or with tags, fused parts or gaps R333A R333A limits assumed) above, with A333R, T343A counted along it

Binding (%) relative to wild-type FIX [1]: 64%
Binding (%) relative to wild-type FIX [2]: 73%
Binding (%) relative to wild-type FIX [3]: 84%
Binding (%) relative to wild-type FIX [4]: 86%
Binding (%) relative to wild-type FIX [5]: 93%
Binding (%) relative to wild-type FIX [6]: 10%
Binding (%) relative to wild-type FIX [7]: 66%
Binding (%) relative to wild-type FIX [8]: 94%
Binding (%) relative to wild-type FIX [9]: 59%
Binding (%) relative to wild-type FIX [10]: 61%
Binding (%) relative to wild-type FIX [11]: 60%
Binding (%) relative to wild-type FIX [12]: 59%
Binding (%) relative to wild-type FIX [13]: 30%
Binding (%) relative to wild-type FIX [14]: 8%
Binding (%) relative to wild-type FIX [15]: 100%
Binding (%) relative to wild-type FIX [16]: 29%
Stimulation Index, FXa generation assay, 2400 nM OA antibody [17]: 13700 fold
Binding (%) relative to wild-type FIX [18]: 100%
B1: one-armed (OA) mAb01-9985 (antibody, V domains shown)
VH: EVQLVESGGGLVQPGRSLRLSCAASGFTFHDYAMHWVRQVPGKGLEWVSGISWRGDIGGYVKSVKGRFTISRDNAKNSLYLQMNSLRAEDTALYYCVKSYGSGSFYNAFDSWGQGTLVTVSS
VL: DIQMTQSPSTLSASVGDRVTITCRASQSISSWLAWYQQKPGKAPKFLIYKASKLERGTPSRFSGSGSGTEFSLTISSLQPDDFATYYCLEYSSYIRTFGQGTKVEIK
notes: also called OA variant of mAb01-9985
